Measurements reported in US20200399344A1.

Assays:
[1] = molecular target: hCD2 expressed on CHO-K1/hCD2 cells (human) (UniProt P06729); assay: flow cytometry, isotype control stain of Cho-K1-Luc hCD2 clone 4; unstained cells 362
[2] = molecular target: mCD28 expressed on CHO-K1/mCD28 cells (mouse) (UniProt P31041); assay: flow cytometry, isotype control stain (sample Chok1-IsotypeCD28); unstained cells 286
[3] = molecular target: m2B4 expressed on CHO-K1/m2B4 cells (mouse) (UniProt Q07763); assay: flow cytometry, isotype control stain of Cho-K1-NFkB-Luc-m2B4 clone C2; unstained cells 2.00
Chain of m2B4 expressed on CHO-K1/m2B4 cells (mouse) (Q07763 20-397): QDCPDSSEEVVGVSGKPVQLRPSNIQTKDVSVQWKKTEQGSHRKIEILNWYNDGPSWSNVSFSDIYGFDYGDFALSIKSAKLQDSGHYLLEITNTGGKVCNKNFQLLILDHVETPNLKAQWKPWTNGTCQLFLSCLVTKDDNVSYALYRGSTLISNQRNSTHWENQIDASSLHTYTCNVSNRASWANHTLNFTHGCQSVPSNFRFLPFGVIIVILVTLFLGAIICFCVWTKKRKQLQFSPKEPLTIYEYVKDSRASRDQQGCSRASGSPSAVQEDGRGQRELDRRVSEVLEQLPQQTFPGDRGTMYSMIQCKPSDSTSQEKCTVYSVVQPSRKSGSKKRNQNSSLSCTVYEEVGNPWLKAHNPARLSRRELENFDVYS

[4] = molecular target: hCD28 expressed on CHO-K1/hCD28 cells (human) (UniProt P10747); assay: flow cytometry, isotype control stain of CHO-K1/hCD28 cells (table row 1); unstained cells 130
Chain of hCD28 expressed on CHO-K1/hCD28 cells (human) (P10747 19-220): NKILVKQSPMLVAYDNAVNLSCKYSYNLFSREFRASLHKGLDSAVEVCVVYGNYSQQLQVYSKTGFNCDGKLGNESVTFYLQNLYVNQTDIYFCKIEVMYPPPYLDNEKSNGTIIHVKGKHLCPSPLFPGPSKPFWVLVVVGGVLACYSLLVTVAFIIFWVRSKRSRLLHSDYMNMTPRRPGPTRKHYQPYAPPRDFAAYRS

Chain of hCD2 expressed on CHO-K1/hCD2 cells (human) (P06729 25-351): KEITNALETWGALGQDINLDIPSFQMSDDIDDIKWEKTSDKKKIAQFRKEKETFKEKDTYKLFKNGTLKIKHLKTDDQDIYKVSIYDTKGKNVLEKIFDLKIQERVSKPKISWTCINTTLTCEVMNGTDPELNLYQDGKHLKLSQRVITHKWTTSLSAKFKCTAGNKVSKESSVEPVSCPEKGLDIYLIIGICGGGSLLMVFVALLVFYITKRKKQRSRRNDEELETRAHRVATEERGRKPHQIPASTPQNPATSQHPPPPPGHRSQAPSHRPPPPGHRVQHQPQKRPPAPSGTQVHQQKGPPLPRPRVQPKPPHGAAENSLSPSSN
Chain of mCD28 expressed on CHO-K1/mCD28 cells (mouse) (P31041 20-218): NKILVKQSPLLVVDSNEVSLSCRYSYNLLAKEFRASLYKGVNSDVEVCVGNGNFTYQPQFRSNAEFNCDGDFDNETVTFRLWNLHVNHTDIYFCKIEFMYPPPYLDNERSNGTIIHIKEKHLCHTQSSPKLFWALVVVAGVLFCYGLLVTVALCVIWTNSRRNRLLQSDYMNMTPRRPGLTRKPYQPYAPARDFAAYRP

isotype control antibody was tested. Which Geometric Mean : PE-A [1] did it give?
The Geometric Mean : PE-A was 1760.

What about the Geometric Mean : PE-A [2] of the same substance?
The Geometric Mean : PE-A was 678.

And the Geometric Mean : PE-A [3]?
Its Geometric Mean : PE-A is 178.

What about the Geometric Mean : PE-A [4] of the same substance?
Its Geometric Mean : PE-A is 589.
